Assay results published in US20200255503A1.

Legend:
[1] = target: natural Fel d1 (cat (Felis domesticus)) (UniProt P30438); experiment: SPR Biacore T200 sequential binding, 25 µg/mL mAb2 over mAb1:Fel d1; coupled mAb1: REGN1909
[2] = target: natural Fel d1 (cat (Felis domesticus)) (UniProt P30438); experiment: blocking ELISA, Fel d1 binding to plate-captured polyclonal human IgE
[3] = target: natural Fel d1 (cat (Felis domesticus)) (UniProt P30438); experiment: cell-based or functional assay
[4] = target: Fel d1 (B-A)-mmH (cat (Felis domesticus)); experiment: blocking ELISA, Fel d1 binding to donor polyclonal cat-allergic IgE
Sequence of Fel d1 (B-A)-mmH (cat (Felis domesticus)) (chain, as listed by the source limits assumed): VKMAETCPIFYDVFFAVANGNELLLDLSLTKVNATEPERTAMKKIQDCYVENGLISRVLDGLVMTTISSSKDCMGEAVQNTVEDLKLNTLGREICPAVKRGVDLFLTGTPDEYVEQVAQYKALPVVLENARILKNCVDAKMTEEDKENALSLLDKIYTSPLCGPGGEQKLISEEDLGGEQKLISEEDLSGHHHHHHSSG

Row | Substance | Non-binding Control mAb (RU) [1] | IC50 [2] | maximum blockade [2] | basophil activation test, CD63 upregulation on basophils of cat-allergic donors, IC50 [3] | basophil activation test, CD203c upregulation on basophils of cat-allergic donors, IC50 [3] | phosphoflow assay, phosphorylation of ERK in basophils, inhibition [3] | IC50 [4]
1 | Non-binding Control mAb (antibody) | -64 RU |  |  |  |  |  | 
2 | REGN1908-1909 |  | 0.45 nM | 83% | 0.01 nM | 0.055 nM | > 80% | 0.58 nM
